The record followed here is patent US20200317768A1 (published 2020).

For assay [1], the target named is T1, soluble mouse FcγRII, His-tagged (mouse, UniProt P08101 30-210, limits assumed).
T1 construct: Captured on the chip by an anti-His antibody
T1 sequence (looked up): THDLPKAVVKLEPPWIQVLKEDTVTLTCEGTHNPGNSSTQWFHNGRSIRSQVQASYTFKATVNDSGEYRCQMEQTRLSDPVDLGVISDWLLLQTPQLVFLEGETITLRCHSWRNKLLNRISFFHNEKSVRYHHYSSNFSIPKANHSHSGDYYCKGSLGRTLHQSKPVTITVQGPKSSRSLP
Kind of assay: SPR, mouse FcgRII-His captured, antigen-antibody complex injected, pH7.4, 25C.

In assay [2] the target is T2, cynomolgus monkey FcγRIIa2 extracellular domain, C-terminal His-tag (cynomolgus monkey).
T2 construct: also called cyno FcγRIIa2; FcgRIIa2
T2 chain: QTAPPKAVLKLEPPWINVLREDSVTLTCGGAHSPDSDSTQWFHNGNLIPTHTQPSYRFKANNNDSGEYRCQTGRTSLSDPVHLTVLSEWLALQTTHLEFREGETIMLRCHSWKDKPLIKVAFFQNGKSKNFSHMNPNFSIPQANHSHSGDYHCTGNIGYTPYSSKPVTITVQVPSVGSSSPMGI
Kind of assay: SPR; KD of SG1 / KD of variant.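 Note: relative to parent M103205H795-SG1 carrying the SG1 human heavy chain constant region.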 The method, then:
(§1) The kinetic analysis of interactions between these antibodies and FcγR was carried out using BIACORE® T200 or BIACORE® 4000 (GE Healthcare). HBS-EP+ (GE Healthcare) was used as the running buffer, and the measurement temperature was set to 25° C. A chip produced by immobilizing Protein A. Protein A/G or mouse anti-human IgG kappa light chain (BD Biosciences) onto a Series S Sensor Chip CM4 or CM5 (GE Healthcare) by the amine-coupling method was used. […] After the measurement, the antibody captured on the chip was washed off by allowing reaction with 10 mM glycine-HCl, pH1.5 and 25 mM NaOH so that the chip was regenerated and used repeatedly. The sensorgrams obtained as measurement results were analyzed by the 1:1 Langmuir binding model using the BIACORE® Evaluation Software to calculate the binding rate constant ka (L/mol/s) and dissociation rate constant kd (l/s), and the dissociation constant KD (mol/L) was calculated from these values. […] Regarding such interactions, KD values were calculated using the following 1:1 binding model described in BIACORE® T100 Software Handbook BR1006-48 Edition AE.
For orientation: SPR reads the build-up and loss of mass on a sensor chip optically.

The target of assay [3] is T3, cynomolgus monkey FcγRIIa3 extracellular domain, C-terminal His-tag (cynomolgus monkey).
T3 construct: also called cyno FcγRIIa3; FcgRIIa3
T3 chain: T2 chain with K127I, N130K, H133P, Q142R
Kind of assay: SPR; KD of SG1 / KD of variant.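 Note: relative to parent M103205H795-SG1 carrying the SG1 human heavy chain constant region.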 As for the experimental part: as §1

The target of assay [4] is T4, cynomolgus monkey FcγRIIb extracellular domain, C-terminal His-tag (cynomolgus monkey).
T4 construct: also called cyno FcγRIIb; cynoFcγRIIb
T4 chain: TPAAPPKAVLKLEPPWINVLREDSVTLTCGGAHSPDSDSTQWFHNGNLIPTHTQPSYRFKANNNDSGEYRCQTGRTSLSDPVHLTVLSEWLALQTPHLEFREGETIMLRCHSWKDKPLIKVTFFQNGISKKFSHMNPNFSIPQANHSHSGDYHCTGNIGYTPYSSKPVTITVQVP
The experiment in a line: SPR; KD of SG1 / KD of variant.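 Note: relative to parent M103205H795-SG1 carrying the SG1 human heavy chain constant region.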 As for the experimental part:
as §1

The target of assay [5] is T5, human FcγRIIaH extracellular domain, C-terminal His-tag (human, UniProt P12318 34-217).
T5 construct: also called human FcγRIIa (type H); FcgRIIaH
T5 sequence: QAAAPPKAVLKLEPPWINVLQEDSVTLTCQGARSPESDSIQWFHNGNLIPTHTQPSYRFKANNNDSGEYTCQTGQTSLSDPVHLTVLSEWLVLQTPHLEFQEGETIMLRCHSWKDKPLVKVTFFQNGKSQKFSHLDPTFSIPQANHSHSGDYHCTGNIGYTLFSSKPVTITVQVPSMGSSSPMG
The experiment in a line: SPR; KD of SG1 / KD of variant.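 Note: relative to parent M103205H795-SG1 carrying the SG1 human heavy chain constant region.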 The method, then:
as §1

The target of assay [6] is T6, human FcγRIIb extracellular domain, C-terminal His-tag (human, UniProt P31994 43-217).
T6 construct: also called FcgRIIb (human)
T6 sequence: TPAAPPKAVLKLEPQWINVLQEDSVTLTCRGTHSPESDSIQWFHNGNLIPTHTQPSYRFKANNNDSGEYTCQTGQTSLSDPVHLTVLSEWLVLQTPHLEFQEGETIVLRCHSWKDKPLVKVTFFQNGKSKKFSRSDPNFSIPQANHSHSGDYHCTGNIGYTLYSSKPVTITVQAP
The experiment in a line: SPR; KD of SG1 / KD of variant. As for the experimental part:
as §1

Numbering of substitutions follows the chain as printed. Names may count otherwise.

B1: MS1032LO06-SG1 (M103205H795-SG1/M103202L889-SK1) (antibody, human IgG1, kappa)
heavy: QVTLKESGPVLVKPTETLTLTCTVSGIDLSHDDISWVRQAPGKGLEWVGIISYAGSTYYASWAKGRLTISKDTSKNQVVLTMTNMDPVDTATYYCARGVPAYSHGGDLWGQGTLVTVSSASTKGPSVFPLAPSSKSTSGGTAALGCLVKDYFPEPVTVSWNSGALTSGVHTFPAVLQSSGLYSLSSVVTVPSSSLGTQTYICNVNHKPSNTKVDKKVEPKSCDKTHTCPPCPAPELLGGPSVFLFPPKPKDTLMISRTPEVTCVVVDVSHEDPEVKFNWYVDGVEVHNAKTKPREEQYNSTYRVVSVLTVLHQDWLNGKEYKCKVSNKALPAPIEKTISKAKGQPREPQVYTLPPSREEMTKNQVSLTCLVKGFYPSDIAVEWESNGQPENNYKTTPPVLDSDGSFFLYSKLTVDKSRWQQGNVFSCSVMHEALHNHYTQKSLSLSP
light: DIVMTQSPATLSLSPGERATLSCTSSQSVYHANWLSWFQQKPGQPPKLLIYWASTLAYGVPSRFSGSGSGTDFTLTISSLQPEDAATYYCAGGYGGGRYAFGQGTKVEIKRTVAAPSVFIFPPSDEQLKSGTASVVCLLNNFYPREAKVQWKVDNALQSGNSQESVTEQDSKDSTYSLSSTLTLSKADYEKHKVYACEVTHQGLSSPVTKSFNRGEC
notes: Anti-latent myostatin antibody
Turning to B1, in assay [1], the “biacore IC binding” value is 1 relative to SG1 (=1.00).

B2: MS_M103205H795-SG1/M103202L889-SK1 (antibody, human IgG1, kappa)
heavy: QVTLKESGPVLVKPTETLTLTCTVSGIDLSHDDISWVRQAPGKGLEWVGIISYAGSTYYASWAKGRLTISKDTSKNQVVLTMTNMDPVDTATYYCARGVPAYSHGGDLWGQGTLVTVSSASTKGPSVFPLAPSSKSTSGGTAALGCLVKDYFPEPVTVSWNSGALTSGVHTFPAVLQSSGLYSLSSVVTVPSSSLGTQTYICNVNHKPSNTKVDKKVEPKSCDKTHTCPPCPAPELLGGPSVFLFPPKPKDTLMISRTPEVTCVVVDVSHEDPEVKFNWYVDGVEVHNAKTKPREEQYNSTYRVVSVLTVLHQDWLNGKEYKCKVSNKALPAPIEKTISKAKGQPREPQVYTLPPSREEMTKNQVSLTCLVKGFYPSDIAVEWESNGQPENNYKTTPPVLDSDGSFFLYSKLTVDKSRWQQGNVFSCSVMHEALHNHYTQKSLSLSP
light: B1 light
notes: also called MS1032LO06-SG1
Regarding B2, the “KD fold (SG1 = 1)” value in assay [2], in assay [3], in assay [4], in assay [5] and in assay [6] was 1 fold in each case.

B3: M103205H795-MY009/M103202L889-SK1 (antibody, human IgG1, kappa)
heavy: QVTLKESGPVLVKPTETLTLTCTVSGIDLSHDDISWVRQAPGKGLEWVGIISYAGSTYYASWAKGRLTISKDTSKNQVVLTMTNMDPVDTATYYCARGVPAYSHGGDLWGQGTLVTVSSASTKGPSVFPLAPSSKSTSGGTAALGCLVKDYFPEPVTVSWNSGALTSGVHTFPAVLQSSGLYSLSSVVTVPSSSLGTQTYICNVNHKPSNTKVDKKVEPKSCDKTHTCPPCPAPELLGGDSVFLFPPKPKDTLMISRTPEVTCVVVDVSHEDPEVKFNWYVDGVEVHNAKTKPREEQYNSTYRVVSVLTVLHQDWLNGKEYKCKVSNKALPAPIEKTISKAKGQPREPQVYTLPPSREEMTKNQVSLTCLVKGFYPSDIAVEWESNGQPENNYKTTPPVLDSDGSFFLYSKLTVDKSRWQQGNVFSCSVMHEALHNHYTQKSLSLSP
light: B1 light
notes: CH MY009 = SG1 with P238D (EU numbering); also called MS1032LO06-MY009
On to B3, for which the “KD fold (SG1 = 1)” value is 0.2 fold in assay [2]; 0.5 fold in assay [3]; 0.4 fold in assay [4]; 0.01 fold in assay [5]; 3.3 fold in assay [6].
